Results on one molecule are retold here after patent publication US20080176263A1, “Materials and Methods for Efficient and Accurate Detection of Analytes” (University of Florida Research Foundation, Inc., priority 2006, published 2008).

Test [1] relates to substrate TNO211. Kind of test: Study #1: time-to-detection of protease activity, cleavage of substrate TNO211 by fluorescence. The class given is biochemical. The conditions noted are these: protease concentrations ≦100 ng/ml. How it is done: 1. Prepare a suitable standard curve diluted in enzyme buffer. Typically, a maximum of 50 ng/ml final protease concentration in the assay is used. Keep on ice until use.
2. Prepare the substrate solution by diluting the Stock Reconstituted Substrate (in DMSO) to 5.56 uM in the desired Assay Buffer (EDTA-free or EDTA-containing) to produce 90 ul of total EDTA-free or EDTA-containing Assay Buffer per well.
3. Pipette 90 ul substrate solution into each well to be assayed.
4. Take an initial fluorescence reading. To minimize interference due to the fluorescence of endogenous proteins in the samples, we routinely use excitation/emission wavelengths of 355/535 nm, respectively.
5. Pipette 10 ul standards, samples, or Enzyme Buffer (BLANK) into each well of the 96-well fluorescence assay plate.
6. Measure the change in fluorescence continuously until the standard range of interest is sufficiently resolved. Protect from light at RT or 37° C. between measurements.
7. Determine the best-fit curve relating the Change in Fluorescence (AF) vs.
[Protease]. […]
One hundred, 10, 1, and 0.1 ng of pronase, MMP-2, MMP-9, and clostridial collagenase were assayed in a total reaction volume of 100 ul for cleavage of substrate TNO211 as detected by fluorescence. The reactions were monitored for approximately one hour after the addition of the proteases.

In test [2] the test system is substrate TNO211. Kind of test: Study #3: protease detection sensitivity, visual detection under UV. The class given is biochemical. The conditions noted are these: within 10 minutes; from 17% and 28% of pronase activity. How it is done:
To investigate the visual detection limits of pronase, standard curves (1000-0 ng) of the protease were reacted in 50, 100, and 200 uM substrate diluted in the assay buffer. Digital photographs were taken under white light and UV. These observations were compared to those obtained quantitatively using the fluorescence plate reader. The observed detection limits for pronase were used to calculate theoretical detection limits for MMP-2 and MMP-9 (17% and 28% as active as pronase, respectively).

“And” between values parts separate entries of the source, which are not always exact repeats. Equal entries are not always repeated.

B1: MMP-2: protease assayed for cleavage of substrate TNO211 (protein)
chain: YNFFPRKPKWDKNQITYRIIGYTPDLDPETVDDAFARAFQVWSDVTPLRFSRIHDGEADIMINFGRWEHGDGYPFDGKDGLLAHAFAPGTGVGGDSHFDDDELWTLGEGQVVRVKYGNADGEYCKFPFLFNGKEYNSCTDTGRSDGFLWCSTTYNFEKDGKYGFCPHEALFTMGGNAEGQPCKFPFRFQGTSYDSCTTEGRTDGYRWCGTTEDYDRDKKYGFCPETAMSTVGGNSEGAPCVFPFTFLGNKYESCTSAGRSDGKMWCATTANYDDDRKWGFCPDQGYSLFLVAAHEFGHAMGLEHSQDPGALMAPIYTYTKNFRLSQDDIKGIQELYGASPDIDLGTGPTPTLGPVTPEICKQDIVFDGIAQIRGEIFFFKDRFIWRTVTPRDKPMGPLLVATFWPELPEKIDAVYEAPQEEKAVFFAGNEYWIYSASTLERGYPKPLTSLGLPPDVQRVDAAFNWSKNKKTYIFAGDKFWRYNEVKKKMDPGFPKLIADAWNAIPDNLDAVVDLQGGGHSYFFKGAYYLKLENQSLKSVKFGSIKSDWLGC
For the molecule B1, the “activity as % of pronase's observed activity” value in the test on substrate TNO211 [1] was 17±4% and 17%. Moreover, the “theoretical detection limit calculated from pronase limit” value with substrate TNO211 [2] is listed as “approximately 735 ng”.
